In article PMC9543391, “ERp57 chaperon protein protects neuronal cells from Aβ‐induced toxicity” (Journal of Neurochemistry, 2022):
“Also recorded” adds a separate entry of the source.

How the values were obtained:
[1] = test system: Aβ25−35; test: Thioflavin-T assay, Aβ25−35 aggregation (co-incubation); assay type: biochemical; details: 1:250 protein/Aβ25−35 molar ratio (4 μM / 1 mM), up to 72 h, 4°C, ThT read at 485 nm, n = 6
Method: The amyloid peptide Aβ25−35 was synthesized by conventional solid‐phase chemistry (Atherton & Sheppard, [1990]), and stored at −20°C. The peptide was resuspended in 1,1,1,3,3,3‐Hexafluoro‐2‐propanol (Sigma®, catalog number #105228), incubated for 1 h with gentle shaking at 4°C, then aliquoted and dried in speedVac for 20 min. The aliquots were stored under a vacuum glass bell. The day before being used, aliquots were resuspended in phosphate‐buffered saline (PBS) at a final concentration of 1 mM, incubated in a ultrasonic bath on ice for 30 min to induce aggregation, followed by gentle shaking at 4°C overnight. Aβ25−35 was diluted in culture medium at a final concentration of 30 μM for cell treatments. Aggregation of Aβ25−35 in the presence of ERp57 was obtained as follows: dried aliquots of Aβ25−35 were resuspended in PBS. […]
Thioflavin‐T assay was used to assess the aggregation of the Aβ25−35. […] The assay was performed using a spectrofluorometer Spex Fluoromax® at 25°C; the excitation wavelength was set at 440 nm (5 nm band width) and the fluorescence was measured between 450 and 520 nm (5 nm band width) (Francioso et al., [2020]).

[2] = test system: pre‐aggregated Aβ25−35; test: Thioflavin-T assay, reversal of pre-aggregated Aβ25−35; assay type: biochemical; details: Aβ25−35 aggregated alone 24 h, then 72 h with increasing concentrations of ERp57; n = 3
Method: Thioflavin‐T assay was used to assess the aggregation of the Aβ25−35. Thioflavin‐T (catalog number #T3516) was prepared in glycine buffer (0.05 M, pH 8.5) (catalog number #G8898), to a final concentration of 5 μM, in order to be saturated by Aβ25−35 (10 μM). Aβ25−35 was aggregated either alone or in the presence of 0.04 μM ERp57 or GST recombinant protein (in a 1:250 ratio). The assay was performed using a spectrofluorometer Spex Fluoromax® at 25°C; the excitation wavelength was set at 440 nm (5 nm band width) and the fluorescence was measured between 450 and 520 nm (5 nm band width) (Francioso et al., [2020]).
Having ascertained the ability of ERp57 to block the aggregation process, we wondered if the protein was able to reverse a preformed amyloid fibril into oligomeric/monomeric forms. To understand this, we aggregated Aβ25−35 alone for 24 h and then incubated it for 72 h in the presence of increasing concentrations of ERp57, assessing every 24 h the state of aggregation by thioflavin T assay (Figure 5c). […] Probably this phenomenon could be because of the fact that the presence of a protein capable of interacting with Aβ25−35 (given the previous experiments) can favor to the maintenance of Aβ25−35 in solution, facilitating the process of aggregation. […]

[3] = test system: SH‐SY5Y cells; test: MTT cell viability assay; assay type: cell-based, human; details: MTT, n = 4
Method: For the cell viability experiments, 96‐well plates were seeded with 10 000 cells/well. After 24 h, cells were treated with 30 μM Aβ25−35 aggregated for 72 h in the presence or in the absence of 0.12 μM of ERp57 or GST recombinant proteins (in a 1:250 ratio), in a final volume of 150 μl per well. Plates were incubated for 24 h in an incubator at 37°C, 5% of CO2, and 99% RH. Thereafter, 20 μl of (3‐[4,5‐Dimethylthiazol‐2‐yl]‐2,5‐Diphenyltetrazolium Bromide) (MTT) dye (stock solution 5 mg/ml in PBS) (catalog number #M2003) was added to the wells and incubated for additional 2 h at 37°C and 5% CO2. Water‐insoluble formazan crystals were dissolved in 100 μl of DMSO (catalog number #472301). For spectrophotometric measurements, Appliscan® plate reader (Thermo scientific) was used at the wavelength 570 nm, with reference set at 690 nm.

[4] = test system: α‐synuclein; details: 1:50 molar ratio; ref Serrano et al., [2020]; cited from earlier work
From the text: We thus hypothesize that the mechanism by which ERp57 exerts its neuroprotective action resides in ERp57 impairment of peptide aggregation, rather than in disaggregation of existing fibrils. The inhibition of the aggregation was induced by low amounts of ERp57 protein, present in the reaction mixture in a very low molar ratio compared to the peptide (1:250), in line with the experiments conducted by Serr ...

[5] = test system: c99 fragment of APP; details: c99 generated by β-secretase; ref Selivanova et al., [2007]; cited from earlier work
From the text: (§1) As previously reported (Williams, [2006]), it is known that ERp57 together with calreticulin and calnexin forms a complex capable of interacting with glycoproteins, including APP, at the […] level, and therefore it can be hypothesized that the contact regions between ERp57 and APP are maintained at least in part also by Aβ, despite the cuts suffered by the secretases.

[6] = test system: full‐length APP; details: permeabilized cells; ref Selivanova et al., [2007]; cited from earlier work
From the text: as §1

[7] = test system: Aβ peptide; details: cerebrospinal fluid of healthy people; ref Erickson et al., [2005]; cited from earlier work
From the text: ERp57 is an endoplasmic reticulum disulfide isomerase which modulates folding of newly synthesized glycoproteins by recognizing and interacting with peptides or incorrectly folded proteins, thereby promoting formation of disulfide bonds and correct protein folding (Torres et al., [2015]). Conversely, Aβ is a small peptide that, because of its intrinsic characteristics, tends to aggregate and to escape the ER‐associated degradation process (ERAD) (Holtzman, [2013]). Eventually, monomeric Aβ is released out of the cell and begins its slow aggregation into fibrils that will form the template for ...

B1: ERp57: thiol oxidoreductase with Protein Disulfide Isomerase activity; human recombinant PDIA3 expressed in E. coli (protein)
chain: SDVLELTDDNFESRISDTGSAGLMLVEFFAPWCGHCKRLAPEYEAAATRLKGIVPLAKVDCTANTNTCNKYGVSGYPTLKIFRDGEEAGAYDGPRTADGIVSHLKKQAGPASVPLRTEEEFKKFISDKDASIVGFFDDSFSEAHSEFLKAASNLRDNYRFAHTNVESLVNEYDDNGEGIILFRPSHLTNKFEDKTVAYTEQKMTSGKIKKFIQENIFGICPHMTEDNKDLIQGKDLLIAYYDVDYEKNAKGSNYWRNRVMMVAKKFLDAGHKLNFAVASRKTFSHELSDFGLESTAGEIPVVAIRTAKGEKFVMQEEFSRDGKALERFLQDYFDGNLKRYLKSEPIPESNDGPVKVVVAENFDEIVNNENKDVLIEFYAPWCGHCKNLEPKYKELGEKLSKDPNIVIAKMDATANDVPSPYEVRGFPTIYFSPANKKLNPKKYEGGRELSDFISYLQREATNPPVIQEEKPKKKKKAQEDL
- effect on Aβ25−35 aggregation (ThT fluorescence) [1]: a marked reduction in the fluorescence signal; also recorded: completely blocks this process; also recorded: strongly reduced the aggregation of the peptide
- ThT fluorescence intensity of pre-aggregated Aβ25−35 [2]: increased in a dose‐dependent manner
- reversal of preformed amyloid [2]: not able to reverse the amyloid aggregation; also recorded: not able to disassemble pre‐aggregated Aβ25−35; also recorded: fails to disaggregate a fibril
- cell viability (with Aβ25−35) ([3]; 30 μM Aβ25−35 aggregated 72 h with 0.12 μM protein (1:250), 24 h treatment): counteracts the toxic effects of Aβ25−35 and restores cellular viability; also recorded: significant increase in cell viability; also recorded: their viability was preserved
- cell viability (protein alone) ([3]; protein alone, without Aβ25−35, 24 h): no effect on cell viability
- effect on α-synuclein aggregation [4]: able to reduce the aggregation of α‐synuclein in a very efficient manner
- interaction with c99 fragment of APP [5]: does not interact with the c99 fragment of APP
- interaction with full-length APP [6]: interacts with full‐length APP
- complex of ERp57 with Aβ [7]: linked to Aβ in the cerebrospinal fluid of healthy people
